Results on twelve molecules are retold here after US20210087291A1 (Hoffmann-La Roche, published 2021).

Assay [1] has as its target T1, cynomolgus FolR1 ECD-AcTev-Fcknob-Avi tag + Fc hole, biotinylated monomeric Fc fusion (cynomolgus, UniProt P0DOX5 223-449 = IgG part).
T1 construct: also called cyFolR1; cyno FolR1-Fc
The experiment in a line: SPR ProteOn, Fab analyte.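 Also: recombinant antigens immobilized, purified Fab two-fold dilutions injected in parallel channels, 200 s association and 600 s dissociation, buffer-only channel as in-line reference.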
Experimental: (§1) Immobilization of antigens (ligand): Recombinant antigens were diluted with PBST (10 mM phosphate, 150 mM sodium chloride pH 7.4, 0.005% Tween 20) to 10 μg/ml, then injected at 30 μl/minute in vertical orientation.
(§2) Injection of analytes: For ‘one-shot kinetics’ measurements, injection direction was changed to horizontal orientation, two-fold dilution series of purified Fab (varying concentration ranges) were injected simultaneously along separate channels 1-5, with association times of 200 s, and dissociation times of 600 s. Buffer (PBST) was injected along the sixth channel to provide an “in-line” blank for referencing. Association rate constants (kₒₙ) and dissociation rate constants (koff) were calculated using a simple one-to-one Langmuir binding model in ProteOn Manager v3.1 software by simultaneously fitting the association and dissociation sensorgrams. The equilibrium dissociation constant (KD) was calculated as the ratio koff/kₒₙ.

In assay [2] the target is T2, human FolR1 ECD-AcTev-Fcknob-Avi tag + Fc hole, biotinylated monomeric Fc fusion (human, UniProt P0DOX5 223-449 = IgG part).
T2 construct: also called huFolR1; huFolR1-Fc
The experiment in a line: SPR ProteOn, Fab analyte.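 Also: recombinant antigens immobilized, purified Fab two-fold dilutions injected in parallel channels, 200 s association and 600 s dissociation, buffer-only channel as in-line reference.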
Experimental: as §1, §2

For assay [3], the target named is T3, human FolR3 ECD-AcTev-Fcknob-Avi tag + Fc hole, biotinylated monomeric Fc fusion (human, UniProt P0DOX5 223-449 = IgG part).
T3 construct: also called huFolR3; FolR3-Fc
The experiment in a line: SPR ProteOn, Fab analyte.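 Also: recombinant antigens immobilized, purified Fab two-fold dilutions injected in parallel channels, 200 s association and 600 s dissociation, buffer-only channel as in-line reference.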
Experimental: as §1, §2

The target of assay [4] is T4, human FolR2 ECD-AcTev-Fcknob-Avi tag + Fc hole, biotinylated monomeric Fc fusion (human, UniProt P0DOX5 223-449 = IgG part).
T4 construct: also called huFolR2; FolR2-Fc
The experiment in a line: SPR ProteOn, Fab analyte.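 Also: recombinant antigens immobilized, purified Fab two-fold dilutions injected in parallel channels, 200 s association and 600 s dissociation, buffer-only channel as in-line reference.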
Experimental: as §1, §2

In assay [5] the target is T3, human FolR3 ECD-AcTev-Fcknob-Avi tag + …. The experiment in a line: SPR, IgG single injection.
In assay [6] the target is T4, human FolR2 ECD-AcTev-Fcknob-Avi tag + …. The experiment in a line: SPR, IgG single injection.

B1: 15A1 Fab (Fab, V domains shown)
VH: QVQLVQSGAEVKKPGASVKVSCKASGYTFTSYYMHWVRQAPGQGLEWMGIINPSGGSTSYAQKFQGRVTMTRDTSTSTVYMELSSLRSEDTAVYYCARNYYIGVVTFDYWGQGTLVTVSS
VL: QAVVTQEPSLTVSPGGTVTLTCGSSTGAVTTSNYANWVQEKPGQAFRGLIGGTNKRAPGTPARFSGSLLGGKAALTLSGAQPEDEAEYYCALWYSNLWVFGGGTKLTVL
A word on the Kd: it is the constant that tells how readily two partners part at equilibrium. As to B1, the dissociation constant Kd worked out at 17.3 nM in assay [1] and 30.9 nM in assay [2]. In addition, the binding result in assay [3] and in assay [4] was “no binding” in each case.

B2: 18D3 IgG (antibody, V domains shown)
VH: QVQLVQSGAEVKKPGASVKVSCKASGYTFTSYYMHWVRQAPGQGLEWMGIINPSGGSTSYAQKFQGRVTMTRDTSTSTVYMELSSLRSEDTAVYYCARNYYTGGSSAFDYWGQGTLVTVS
VL: QAVVTQEPSLTVSPGGTVTLTCGSSTGAVTTSNYANWVQEKPGQAFRGLIGGTNKRAPGTPARFSGSLLGGKAALTLSGAQPEDEAEYYCALWYSNLWVFGGGTKLTVL
notes: human IgG1
Turning to B2, the binding result in assay [5] and in assay [6] was “no binding (tested: 500 nM)” throughout.

B3: 16A3 Fab (Fab, V domains shown)
VH: QVQLVQSGAEVKKPGASVKVSCKASGYTFTSYYMHWVRQAPGQGLEWMGIINPSGGSTSYAQKFQGRVTMTRDTSTSTVYMELSSLRSEDTAVYYCARNYYAGVTPFDYWGQGTLVTVSS
VL: QAVVTQEPSLTVSPGGTVTLTCGSSTGAVTTSNYANWVQEKPGQAFRGLIGGTNKRAPGTPARFSGSLLGGKAALTLSGAQPEDEAEYYCALWYSNLWVFGGGTKLTVL
In the case of B3, the dissociation constant Kd in assay [1] is 18 nM; in assay [2] it was 21.7 nM. Further, the binding result in assay [3] and in assay [4] was “no binding” each time.

B4: 19A4 Fab (Fab, V domains shown)
VH: QVQLVQSGAEVKKPGASVKVSCKASGYTFTSYYMHWVRQAPGQGLEWMGIINPSGGSTSYAQKFQGRVTMTRDTSTSTVYMELSSLRSEDTAVYYCARGGWIRWEHFDYWGQGTLVTVSS
VL: QAVVTQEPSLTVSPGGTVTLTCGSSTGAVTTSNYANWVQEKPGQAFRGLIGGTNKRAPGTPARFSGSLLGGKAALTLSGAQPEDEAEYYCALWYSNLWVFGGGTKLTVL
For B4, the results for the Kd in assay [1] and in assay [2] were 4250 nM and 2050 nM, respectively.

B5: 15H7 IgG (antibody, V domains shown)
VH: QVQLVQSGAEVKKPGASVKVSCKASGYTFTSYYMHWVRQAPGQGLEWMGIINPSGGSTSYAQKFQGRVTMTRDTSTSTVYMELSSLRSEDTAVYYCARNYYLFSTSFDYWGQGTLVTVSS
VL: QAVVTQEPSLTVSPGGTVTLTCGSSTGAVTTSNYANWVQEKPGQAFRGLIGGTNKRAPGTPARFSGSLLGGKAALTLSGAQPEDEAEYYCALWYSNLWVFGGGTKLTVL
notes: human IgG1
On to B5, for which the binding result in assay [5] and in assay [6] was “no binding (tested: 500 nM)” throughout.

B6: 15H7 Fab (Fab, V domains shown)
VH: QVQLVQSGAEVKKPGASVKVSCKASGYTFTSYYMHWVRQAPGQGLEWMGIINPSGGSTSYAQKFQGRVTMTRDTSTSTVYMELSSLRSEDTAVYYCARNYYLFSTSFDYWGQGTLVTVSS
VL: QAVVTQEPSLTVSPGGTVTLTCGSSTGAVTTSNYANWVQEKPGQAFRGLIGGTNKRAPGTPARFSGSLLGGKAALTLSGAQPEDEAEYYCALWYSNLWVFGGGTKLTVL
Turning to B6, the dissociation constant (Kd) in assay [1] was determined as 72.5 nM. The binding result in assay [3] and in assay [4] was “no binding” throughout.

B7: 16A3 IgG (antibody, V domains shown)
VH: QVQLVQSGAEVKKPGASVKVSCKASGYTFTSYYMHWVRQAPGQGLEWMGIINPSGGSTSYAQKFQGRVTMTRDTSTSTVYMELSSLRSEDTAVYYCARNYYAGVTPFDYWGQGTLVTVSS
VL: QAVVTQEPSLTVSPGGTVTLTCGSSTGAVTTSNYANWVQEKPGQAFRGLIGGTNKRAPGTPARFSGSLLGGKAALTLSGAQPEDEAEYYCALWYSNLWVFGGGTKLTVL
notes: human IgG1
As to B7, the binding result in assay [5] and in assay [6] was “no binding (tested: 500 nM)” each time.

B8: 19E5 Fab (Fab, V domains shown)
VH: QVQLVQSGAEVKKPGASVKVSCKASGYTFTSYYMHWVRQAPGQGLEWMGIINPSGGSTSYAQKFQGRVTMTRDTSTSTVYMELSSLRSEDTAVYYCARGEWRRYTSFDYWGQGTLVTVSS
VL: QAVVTQEPSLTVSPGGTVTLTCGSSTGAVTTSNYANWVQEKPGQAFRGLIGGTNKRAPGTPARFSGSLLGGKAALTLSGAQPEDEAEYYCALWYSNLWVFGGGTKLTVL
As for B8, the Kd in assay [1] came to 276 nM.

B9: 21D1 Fab (Fab, V domains shown)
VH: QVQLVQSGAEVKKPGASVKVSCKASGYTFTSYYMHWVRQAPGQGLEWMGIINPSGGSTSYAQKFQGRVTMTRDTSTSTVYMELSSLRSEDTAVYYCARNYYVGVSPFDYWGQGTLVTVSS
VL: QAVVTQEPSLTVSPGGTVTLTCGSSTGAVTTSNYANWVQEKPGQAFRGLIGGTNKRAPGTPARFSGSLLGGKAALTLSGAQPEDEAEYYCALWYSNLWVFGGGTKLTVL
Regarding B9, the figures for the equilibrium dissociation constant (Kd) in assay [1] and in assay [2] were 32.1 nM and 62.6 nM, respectively. The binding result in assay [3] and in assay [4] was “no binding” each time.

B10: 21D1 IgG (antibody, V domains shown)
VH: QVQLVQSGAEVKKPGASVKVSCKASGYTFTSYYMHWVRQAPGQGLEWMGIINPSGGSTSYAQKFQGRVTMTRDTSTSTVYMELSSLRSEDTAVYYCARNYYVGVSPFDYWGQGTLVTVSS
VL: QAVVTQEPSLTVSPGGTVTLTCGSSTGAVTTSNYANWVQEKPGQAFRGLIGGTNKRAPGTPARFSGSLLGGKAALTLSGAQPEDEAEYYCALWYSNLWVFGGGTKLTVL
notes: human IgG1
As to B10, the binding result in assay [5] and in assay [6] was “no binding (tested: 500 nM)” each time.

B11: 20G6 Fab (Fab, V domains shown)
VH: QVQLVQSGAEVKKPGASVKVSCKASGYTFTSYYMHWVRQAPGQGLEWMGIINPSGGSTSYAQKFQGRVTMTRDTSTSTVYMELSSLRSEDTAVYYCARGEWIRYYHFDYWGQGTLVTVSS
VL: QAVVTQEPSLTVSPGGTVTLTCGSSTGAVTTSNYANWVQEKPGQAFRGLIGGTNKRAPGTPARFSGSLLGGKAALTLSGAQPEDEAEYYCALWYSNLWVFGGGTKLTVL
For B11, the binding result in assay [1], in assay [2], in assay [3] and in assay [4] was “no binding” throughout.

B12: 19H3 Fab (Fab, V domains shown)
VH: QVQLVQSGAEVKKPGASVKVSCKASGYTFTSYYMHWVRQAPGQGLEWMGIINPSGGSTSYAQKFQGRVTMTRDTSTSTVYMELSSLRSEDTAVYYCARTGWSRWGYMDYWGQGTLVTVSS
VL: QAVVTQEPSLTVSPGGTVTLTCGSSTGAVTTSNYANWVQEKPGQAFRGLIGGTNKRAPGTPARFSGSLLGGKAALTLSGAQPEDEAEYYCALWYSNLWVFGGGTKLTVL
Consider B12, for which the binding result in assay [1], in assay [2], in assay [3] and in assay [4] was “no binding” in each case.
